The text below walks through data of paper PMC6277172 (Protein Engineering, Design and Selection, 2018).

The assay has as its target N-terminal domain of MDM2 (M6-N125) (UniProt Q00987 6-125). In words: fluorescence polarisation.

N-terminal domain of MDM2 (M6-N125), sequence (Q00987 6-125): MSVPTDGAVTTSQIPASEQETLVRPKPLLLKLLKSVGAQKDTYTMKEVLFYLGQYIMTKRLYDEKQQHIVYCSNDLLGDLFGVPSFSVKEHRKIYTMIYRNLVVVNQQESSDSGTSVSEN

B1: FAM labeled 12-1 peptide (peptide)
peptide: {FAM}-RFMDYWEGL-NH2
Regarding B1, the binding result is recorded as “binds”.
